{
  "source": "paper PMC5372792",
  "key": {"[1]": {"target": "HLA-C01:02 (C1) on 721.221 cells (human | human (endogenous in 721.221))"}, "[2]": {"target": "HLA-C07:01 (C1) on 721.221 cells (human | human (endogenous in 721.221))"}},
  "data": [
    {"substance": "KIR2DL2 reporter (2DL2–2DS1TM chimeric molecule, KIR2DL2*001) (receptor)", "values": [
      {"measurement": "GFP-positive NFAT-GFP reporter cells after overnight coculture with 721.221 transfectants (E:T 1:3) (% GFP-positive cells)", "setting": "[1]", "value": "< 5"},
      {"measurement": "GFP-positive NFAT-GFP reporter cells after overnight coculture with 721.221 transfectants (E:T 1:3)", "setting": "[2]", "value": "> 20", "unit": "% GFP cells"}
    ]}
  ]
}
